Source: patent publication US6703362 (CYTOGEN, dated 2004)

T1: hPEPT1 receptor domain (human PEPT1, amino acid residues 391-571), His-tag fusion protein (human, UniProt P46059 391-571)
T1 construct: purified under denaturing conditions; also called recombinant hPEPT1; not shown: poly-histidine tag (pET vector) at the NH2-terminal end
T1 sequence: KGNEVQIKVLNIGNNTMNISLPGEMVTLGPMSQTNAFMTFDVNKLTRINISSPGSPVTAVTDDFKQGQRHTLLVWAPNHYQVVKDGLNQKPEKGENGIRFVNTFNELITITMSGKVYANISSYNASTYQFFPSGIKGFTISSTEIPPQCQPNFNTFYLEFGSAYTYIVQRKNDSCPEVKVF

B1: PAX18 (peptide)
peptide: SFLRFQSPRFEDYSRTISRLRNATNPSNVSDAHNNRALAAETVESCLAKPHTENSFTNVWKDDKTLDRYANYEGCLWNATGVVVCTGDETQCYGTWVPIGLAIPENEGGGSEGGGSEGGGSEGGGTKPPEYGDTPIPGYTYINPLDGTYPPGTEQNPANPNPSLEESQPLNTFMFQNNRFRNRQGALTVYTGTVTQGTDPVKTYYQYTPVSSKAMYDAYWNGKFRDCAFHSGFNEDPFVCEYQGQSSDLPQPPVNAGGGSGGGSGGGSEGGGSEGGGSEGGGSEGGGSGGGSGSGDFDYEKMANANKGAMTENADENALQSDAKGKLDSVATDYGAAIDGFIGDVSGLANGNGATGDFAGSNSQMAQVGDGDNSPLMNNFRQYLPSLPQSVECRPFVFSAGKPYEFSIDCDKINLFRGVFAFLLYVATFMYVFSTFANILRNKES
notes: Assayed as M13 phage clone displaying the insert
B2: 5PAX12 (peptide)
peptide: RGWKCEGSQAAYGDKDIGRSRGCGSITKNNTNHAHPSHGAVAKIAETVESCLAKPHTENSFTNVWKDDKTLDRYANYEGCLWNATGVVVCTGDETQCYGTWVPIGLAIPENEGGGSEGGGSEGGGSEGGGTKPPEYGDTPIPGYTYINPLDGTYPPGTEQNPANPNPSLEESQPLNTFMFQNNRFRNRQGALTVYTGTVTQGTDPVKTYYQYTPVSSKAMYDAYWNGKFRDCAFHSGFNEDPFVCEYQGQSSDLPQPPVNAGGGSGGGSGGGSEGGGSEGGGSEGGGSEGGGSGGGSGSGDFDYEKMANANKGAMTENADENALQSDAKGKLDSVATDYGAAIDGFIGDVSGLANGNGATGDFAGSNSQMAQVGDGDNSPLMNNFRQYLPSLPQSVECRPFVFSAGKPYEFSIDCDKINLFRGVFAFLLYVATFMYVFSTFANILRNKES
notes: as for B1
B3: PAX46 (peptide)
peptide: SRCTDNEQCPDTGTRSRSVSNARYFSSRLLKTHAPHRPAETVESCLAKPHTENSFTNVWKDDKTLDRYANYEGCLWNATGVVVCTGDETQCYGTWVPIGLAIPENEGGGSEGGGSEGGGSEGGGTKPPEYGDTPIPGYTYINPLDGTYPPGTEQNPANPNPSLEESQPLNTFMFQNNRFRNRQGALTVYTGTVTQGTDPVKTYYQYTPVSSKAMYDAYWNGKFRDCAFHSGFNEDPFVCEYQGQSSDLPQPPVNAGGGSGGGSGGGSEGGGSEGGGSEGGGSEGGGSGGGSGSGDFDYEKMANANKGAMTENADENALQSDAKGKLDSVATDYGAAIDGFIGDVSGLANGNGATGDFAGSNSQMAQVGDGDNSPLMNNFRQYLPSLPQSVECRPFVFSAGKPYEFSIDCDKINLFRGVFAFLLYVATFMYVFSTFANILRNKES
notes: as for B1
B4: PAX38 (peptide)
peptide: SSKVSSPRDPTVPRKGGNVDYGCGHRSSARMPTSALSSITKCYTAETVESCLAKPHTENSFTNVWKDDKTLDRYANYEGCLWNATGVVVCTGDETQCYGTWVPIGLAIPENEGGGSEGGGSEGGGSEGGGTKPPEYGDTPIPGYTYINPLDGTYPPGTEQNPANPNPSLEESQPLNTFMFQNNRFRNRQGALTVYTGTVTQGTDPVKTYYQYTPVSSKAMYDAYWNGKFRDCAFHSGFNEDPFVCEYQGQSSDLPQPPVNAGGGSGGGSGGGSEGGGSEGGGSEGGGSEGGGSGGGSGSGDFDYEKMANANKGAMTENADENALQSDAKGKLDSVATDYGAAIDGFIGDVSGLANGNGATGDFAGSNSQMAQVGDGDNSPLMNNFRQYLPSLPQSVECRPFVFSAGKPYEFSIDCDKINLFRGVFAFLLYVATFMYVFSTFANILRNKES
notes: as for B1
B5: 5PAX7 (peptide)
peptide: RWGWERSPSDYDSDMDLGARRYATRTHRAPPRVLKAPLPAETVESCLAKPHTENSFTNVWKDDKTLDRYANYEGCLWNATGVVVCTGDETQCYGTWVPIGLAIPENEGGGSEGGGSEGGGSEGGGTKPPEYGDTPIPGYTYINPLDGTYPPGTEQNPANPNPSLEESQPLNTFMFQNNRFRNRQGALTVYTGTVTQGTDPVKTYYQYTPVSSKAMYDAYWNGKFRDCAFHSGFNEDPFVCEYQGQSSDLPQPPVNAGGGSGGGSGGGSEGGGSEGGGSEGGGSEGGGSGGGSGSGDFDYEKMANANKGAMTENADENALQSDAKGKLDSVATDYGAAIDGFIGDVSGLANGNGATGDFAGSNSQMAQVGDGDNSPLMNNFRQYLPSLPQSVECRPFVFSAGKPYEFSIDCDKINLFRGVFAFLLYVATFMYVFSTFANILRNKES
notes: as for B1
B6: PAX45 (peptide)
peptide: SFQVYPDHGLERHALDGTGPLYAMPGRWIRARPQNRDRQAETVESCLAKPHTENSFTNVWKDDKTLDRYANYEGCLWNATGVVVCTGDETQCYGTWVPIGLAIPENEGGGSEGGGSEGGGSEGGGTKPPEYGDTPIPGYTYINPLDGTYPPGTEQNPANPNPSLEESQPLNTFMFQNNRFRNRQGALTVYTGTVTQGTDPVKTYYQYTPVSSKAMYDAYWNGKFRDCAFHSGFNEDPFVCEYQGQSSDLPQPPVNAGGGSGGGSGGGSEGGGSEGGGSEGGGSEGGGSGGGSGSGDFDYEKMANANKGAMTENADENALQSDAKGKLDSVATDYGAAIDGFIGDVSGLANGNGATGDFAGSNSQMAQVGDGDNSPLMNNFRQYLPSLPQSVECRPFVFSAGKPYEFSIDCDKINLFRGVFAFLLYVATFMYVFSTFANILRNKES
notes: as for B1
B7: PAX40 (peptide)
peptide: RASTQGGRGVAPEFGASVLGRGCGSATYYTNSTSCKDAMGHNYSAETVESCLAKPHTENSFTNVWKDDKTLDRYANYEGCLWNATGVVVCTGDETQCYGTWVPIGLAIPENEGGGSEGGGSEGGGSEGGGTKPPEYGDTPIPGYTYINPLDGTYPPGTEQNPANPNPSLEESQPLNTFMFQNNRFRNRQGALTVYTGTVTQGTDPVKTYYQYTPVSSKAMYDAYWNGKFRDCAFHSGFNEDPFVCEYQGQSSDLPQPPVNAGGGSGGGSGGGSEGGGSEGGGSEGGGSEGGGSGGGSGSGDFDYEKMANANKGAMTENADENALQSDAKGKLDSVATDYGAAIDGFIGDVSGLANGNGATGDFAGSNSQMAQVGDGDNSPLMNNFRQYLPSLPQSVECRPFVFSAGKPYEFSIDCDKINLFRGVFAFLLYVATFMYVFSTFANILRNKES
notes: as for B1
B8: PAX17 (peptide)
peptide: SQVDSFRNSFRWYEPSRALCHGCGKRDTSTTRIHNSPSDSYPTRAETVESCLAKPHTENSFTNVWKDDKTLDRYANYEGCLWNATGVVVCTGDETQCYGTWVPIGLAIPENEGGGSEGGGSEGGGSEGGGTKPPEYGDTPIPGYTYINPLDGTYPPGTEQNPANPNPSLEESQPLNTFMFQNNRFRNRQGALTVYTGTVTQGTDPVKTYYQYTPVSSKAMYDAYWNGKFRDCAFHSGFNEDPFVCEYQGQSSDLPQPPVNAGGGSGGGSGGGSEGGGSEGGGSEGGGSEGGGSGGGSGSGDFDYEKMANANKGAMTENADENALQSDAKGKLDSVATDYGAAIDGFIGDVSGLANGNGATGDFAGSNSQMAQVGDGDNSPLMNNFRQYLPSLPQSVECRPFVFSAGKPYEFSIDCDKINLFRGVFAFLLYVATFMYVFSTFANILRNKES
notes: as for B1
B9: 5PAX3 (peptide)
peptide: RPKNVADAYSSQDGAAAEETSHASNAARKSPKHKPLRRPAETVESCLAKPHTENSFTNVWKDDKTLDRYANYEGCLWNATGVVVCTGDETQCYGTWVPIGLAIPENEGGGSEGGGSEGGGSEGGGTKPPEYGDTPIPGYTYINPLDGTYPPGTEQNPANPNPSLEESQPLNTFMFQNNRFRNRQGALTVYTGTVTQGTDPVKTYYQYTPVSSKAMYDAYWNGKFRDCAFHSGFNEDPFVCEYQGQSSDLPQPPVNAGGGSGGGSGGGSEGGGSEGGGSEGGGSEGGGSGGGSGSGDFDYEKMANANKGAMTENADENALQSDAKGKLDSVATDYGAAIDGFIGDVSGLANGNGATGDFAGSNSQMAQVGDGDNSPLMNNFRQYLPSLPQSVECRPFVFSAGKPYEFSIDCDKINLFRGVFAFLLYVATFMYVFSTFANILRNKES
notes: as for B1
B10: PAX35 (peptide)
peptide: RSITDGGINEVDLSSVSNVLENANSHRAYRKHRPTLKRPAETVESCLAKPHTENSFTNVWKDDKTLDRYANYEGCLWNATGVVVCTGDETQCYGTWVPIGLAIPENEGGGSEGGGSEGGGSEGGGTKPPEYGDTPIPGYTYINPLDGTYPPGTEQNPANPNPSLEESQPLNTFMFQNNRFRNRQGALTVYTGTVTQGTDPVKTYYQYTPVSSKAMYDAYWNGKFRDCAFHSGFNEDPFVCEYQGQSSDLPQPPVNAGGGSGGGSGGGSEGGGSEGGGSEGGGSEGGGSGGGSGSGDFDYEKMANANKGAMTENADENALQSDAKGKLDSVATDYGAAIDGFIGDVSGLANGNGATGDFAGSNSQMAQVGDGDNSPLMNNFRQYLPSLPQSVECRPFVFSAGKPYEFSIDCDKINLFRGVFAFLLYVATFMYVFSTFANILRNKES
notes: as for B1
B11: PAX9 (peptide)
peptide: RWPSVGYKGNGSDTIDVHSNDASTKRSLIYNHRRPLFPAETVESCLAKPHTENSFTNVWKDDKTLDRYANYEGCLWNATGVVVCTGDETQCYGTWVPIGLAIPENEGGGSEGGGSEGGGSEGGGTKPPEYGDTPIPGYTYINPLDGTYPPGTEQNPANPNPSLEESQPLNTFMFQNNRFRNRQGALTVYTGTVTQGTDPVKTYYQYTPVSSKAMYDAYWNGKFRDCAFHSGFNEDPFVCEYQGQSSDLPQPPVNAGGGSGGGSGGGSEGGGSEGGGSEGGGSEGGGSGGGSGSGDFDYEKMANANKGAMTENADENALQSDAKGKLDSVATDYGAAIDGFIGDVSGLANGNGATGDFAGSNSQMAQVGDGDNSPLMNNFRQYLPSLPQSVECRPFVFSAGKPYEFSIDCDKINLFRGVFAFLLYVATFMYVFSTFANILRNKES
notes: as for B1
B12: PAX43 (peptide)
peptide: RWCEKHKFTAARCSAGAGFERDASRPPQPAHRDNTNRNAAETVESCLAKPHTENSFTNVWKDDKTLDRYANYEGCLWNATGVVVCTGDETQCYGTWVPIGLAIPENEGGGSEGGGSEGGGSEGGGTKPPEYGDTPIPGYTYINPLDGTYPPGTEQNPANPNPSLEESQPLNTFMFQNNRFRNRQGALTVYTGTVTQGTDPVKTYYQYTPVSSKAMYDAYWNGKFRDCAFHSGFNEDPFVCEYQGQSSDLPQPPVNAGGGSGGGSGGGSEGGGSEGGGSEGGGSEGGGSGGGSGSGDFDYEKMANANKGAMTENADENALQSDAKGKLDSVATDYGAAIDGFIGDVSGLANGNGATGDFAGSNSQMAQVGDGDNSPLMNNFRQYLPSLPQSVECRPFVFSAGKPYEFSIDCDKINLFRGVFAFLLYVATFMYVFSTFANILRNKES
notes: as for B1

Target: T1, hPEPT1 receptor domain (human PEPT1, …)
Test: phage ELISA, plate coated with hPEPT1 domain
Description: 6.6. Receptor ELISA Procedure 96 well plates were coated overnight with GIT receptor, BSA and, optionally, IDE (insulin degrading enzyme, an irrelevant His-fusion protein)or hTF. The plates were blocked for one hour with 0.5% BSA-PBS. After clarification, the amplified phage were diluted 1:100 in […] plus 0.05% Tween 20 in PBS and added to the plates. Following incubation of the plates on a rotator for 1 to 2 hours, the plates were washed 5 times with 1% BSA plus 0.05% Tween 20 in PBS. […] After the plates were washed 5 times, as described above, TMB substrate was added to the wells. The plates were read at 650 nm absorbance.

In order of falling OD:
1. B8  0.514 OD
2. B10  0.474 OD
3. B7  0.461 OD
4. B3  0.429 OD
5. B6  0.419 OD
6. B1  0.416 OD
7. B12  0.345 OD
8. B11  0.312 OD
9. B4  0.292 OD
10. B2  0.227 OD
11. B9  0.173 OD
12. B5  0.171 OD
